This experiment has as its target T1, endothelial nitric oxide synthase (eNOS) (bovine (endogenous in BAEC), UniProt P29473 2-1205).
T1 sequence (looked up): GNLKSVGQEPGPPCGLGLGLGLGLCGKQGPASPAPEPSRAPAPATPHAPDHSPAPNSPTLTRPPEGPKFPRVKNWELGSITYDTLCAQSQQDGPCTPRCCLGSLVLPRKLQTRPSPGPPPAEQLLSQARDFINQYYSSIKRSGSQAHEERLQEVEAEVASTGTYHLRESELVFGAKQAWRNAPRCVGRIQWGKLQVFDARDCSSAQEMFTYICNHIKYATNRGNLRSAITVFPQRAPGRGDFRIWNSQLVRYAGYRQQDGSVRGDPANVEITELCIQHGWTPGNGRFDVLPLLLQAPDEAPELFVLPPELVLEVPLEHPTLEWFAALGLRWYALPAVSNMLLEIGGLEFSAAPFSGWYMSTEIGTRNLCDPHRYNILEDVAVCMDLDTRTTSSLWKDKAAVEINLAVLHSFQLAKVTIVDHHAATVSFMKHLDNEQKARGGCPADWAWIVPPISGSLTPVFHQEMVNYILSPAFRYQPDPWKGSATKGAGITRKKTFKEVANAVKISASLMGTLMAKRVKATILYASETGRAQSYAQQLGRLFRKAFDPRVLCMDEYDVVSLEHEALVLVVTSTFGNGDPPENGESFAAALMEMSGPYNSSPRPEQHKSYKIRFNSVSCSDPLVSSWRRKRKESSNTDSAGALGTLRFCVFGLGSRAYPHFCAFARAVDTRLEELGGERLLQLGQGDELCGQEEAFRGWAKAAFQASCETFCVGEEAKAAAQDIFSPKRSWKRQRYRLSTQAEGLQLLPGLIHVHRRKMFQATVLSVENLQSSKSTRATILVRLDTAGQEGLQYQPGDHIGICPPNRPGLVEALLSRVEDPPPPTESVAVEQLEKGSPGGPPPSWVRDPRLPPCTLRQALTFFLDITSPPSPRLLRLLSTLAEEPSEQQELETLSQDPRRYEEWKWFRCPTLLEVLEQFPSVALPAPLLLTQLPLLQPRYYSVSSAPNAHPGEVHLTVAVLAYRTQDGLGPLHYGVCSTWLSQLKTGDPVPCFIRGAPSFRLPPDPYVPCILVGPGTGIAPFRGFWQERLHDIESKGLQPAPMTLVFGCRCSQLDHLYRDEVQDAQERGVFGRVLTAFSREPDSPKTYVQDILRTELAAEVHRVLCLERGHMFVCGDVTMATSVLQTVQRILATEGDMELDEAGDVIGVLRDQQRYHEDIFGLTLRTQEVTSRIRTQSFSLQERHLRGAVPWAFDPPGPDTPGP
The experiment is described as follows: cell-based or functional assay.

In the case of RRPPRDGIWKASFTTFTVTKYWFYR [Endo5-Cav], the “EC50 of inhibition of VEGF-induced NO release in BAEC” value was 7.5 µM. The result for RQIKIWFQNRRMKWKKDGIWKASFTTFTVTKYWFYR [AP-Cav] reads 1.8 µM.
